From EP1789452B1, “RELAXIN-CHIMERIC POLYPEPTIDES AND THEIR PREPARATION AND USE” (Janssen Pharmaceutica NV, priority 2004, dated 2006)

Assays:
[1] = biological target: human LGR7 (human) (UniProt Q9HBX9); test: cell-based or functional assay
[2] = biological target: human LGR8 (human) (UniProt Q8WXD0); test: cell-based or functional assay
[3] = biological target: rat GPCR135 (rat) (UniProt Q5Y987); test: competition with 100 pM [125I] human R3, COS-7 membranes with rat GPCR135
[4] = biological target: rat LGR7 (rat) (UniProt Q6R6I6); test: competition with 100 pM [125I] human relaxin-2, COS-7 membranes with rat LGR7
Sequence of rat LGR7 (rat) (Q6R6I6 whole entry): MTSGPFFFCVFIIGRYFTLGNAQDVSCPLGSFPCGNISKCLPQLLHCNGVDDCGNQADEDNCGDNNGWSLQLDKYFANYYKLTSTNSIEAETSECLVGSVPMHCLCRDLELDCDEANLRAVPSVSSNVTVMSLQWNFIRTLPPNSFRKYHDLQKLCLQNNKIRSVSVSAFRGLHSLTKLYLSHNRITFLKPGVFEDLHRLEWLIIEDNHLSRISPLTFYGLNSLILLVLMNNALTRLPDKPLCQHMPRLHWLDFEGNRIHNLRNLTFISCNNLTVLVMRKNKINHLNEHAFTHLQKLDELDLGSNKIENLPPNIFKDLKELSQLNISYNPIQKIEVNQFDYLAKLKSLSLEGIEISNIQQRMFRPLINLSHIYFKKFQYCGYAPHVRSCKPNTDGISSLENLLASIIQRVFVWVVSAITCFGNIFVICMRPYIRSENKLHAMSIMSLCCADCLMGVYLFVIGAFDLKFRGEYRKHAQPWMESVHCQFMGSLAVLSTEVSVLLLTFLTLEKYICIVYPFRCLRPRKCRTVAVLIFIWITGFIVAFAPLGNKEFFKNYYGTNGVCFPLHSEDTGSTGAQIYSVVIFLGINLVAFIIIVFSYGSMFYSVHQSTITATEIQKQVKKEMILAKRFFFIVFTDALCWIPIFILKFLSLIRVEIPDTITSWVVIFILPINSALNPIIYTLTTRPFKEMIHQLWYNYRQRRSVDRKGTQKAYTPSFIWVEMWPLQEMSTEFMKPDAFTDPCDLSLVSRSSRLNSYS

Sequence of human LGR8 (human) (Q8WXD0 whole entry): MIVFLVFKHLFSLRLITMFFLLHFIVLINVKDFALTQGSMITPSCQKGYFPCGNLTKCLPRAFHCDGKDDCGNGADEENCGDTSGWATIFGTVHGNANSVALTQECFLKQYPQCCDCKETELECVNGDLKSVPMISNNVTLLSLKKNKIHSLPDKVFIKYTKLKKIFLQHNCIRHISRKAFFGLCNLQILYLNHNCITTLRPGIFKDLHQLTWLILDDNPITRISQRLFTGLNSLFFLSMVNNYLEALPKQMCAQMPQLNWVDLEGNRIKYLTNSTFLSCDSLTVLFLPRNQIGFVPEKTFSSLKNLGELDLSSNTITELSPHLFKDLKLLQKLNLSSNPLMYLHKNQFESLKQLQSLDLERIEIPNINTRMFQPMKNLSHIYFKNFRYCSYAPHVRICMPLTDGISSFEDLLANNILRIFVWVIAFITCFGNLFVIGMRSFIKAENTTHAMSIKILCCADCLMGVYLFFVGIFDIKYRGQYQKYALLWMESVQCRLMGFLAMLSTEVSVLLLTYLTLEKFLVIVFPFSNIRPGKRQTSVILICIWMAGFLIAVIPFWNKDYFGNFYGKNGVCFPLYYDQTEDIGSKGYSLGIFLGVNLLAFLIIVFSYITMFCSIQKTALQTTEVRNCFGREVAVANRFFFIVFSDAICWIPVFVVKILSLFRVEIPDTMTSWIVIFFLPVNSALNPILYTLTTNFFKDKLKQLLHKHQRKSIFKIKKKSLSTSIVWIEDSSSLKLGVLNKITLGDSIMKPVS
Sequence of human LGR7 (human) (Q9HBX9 whole entry): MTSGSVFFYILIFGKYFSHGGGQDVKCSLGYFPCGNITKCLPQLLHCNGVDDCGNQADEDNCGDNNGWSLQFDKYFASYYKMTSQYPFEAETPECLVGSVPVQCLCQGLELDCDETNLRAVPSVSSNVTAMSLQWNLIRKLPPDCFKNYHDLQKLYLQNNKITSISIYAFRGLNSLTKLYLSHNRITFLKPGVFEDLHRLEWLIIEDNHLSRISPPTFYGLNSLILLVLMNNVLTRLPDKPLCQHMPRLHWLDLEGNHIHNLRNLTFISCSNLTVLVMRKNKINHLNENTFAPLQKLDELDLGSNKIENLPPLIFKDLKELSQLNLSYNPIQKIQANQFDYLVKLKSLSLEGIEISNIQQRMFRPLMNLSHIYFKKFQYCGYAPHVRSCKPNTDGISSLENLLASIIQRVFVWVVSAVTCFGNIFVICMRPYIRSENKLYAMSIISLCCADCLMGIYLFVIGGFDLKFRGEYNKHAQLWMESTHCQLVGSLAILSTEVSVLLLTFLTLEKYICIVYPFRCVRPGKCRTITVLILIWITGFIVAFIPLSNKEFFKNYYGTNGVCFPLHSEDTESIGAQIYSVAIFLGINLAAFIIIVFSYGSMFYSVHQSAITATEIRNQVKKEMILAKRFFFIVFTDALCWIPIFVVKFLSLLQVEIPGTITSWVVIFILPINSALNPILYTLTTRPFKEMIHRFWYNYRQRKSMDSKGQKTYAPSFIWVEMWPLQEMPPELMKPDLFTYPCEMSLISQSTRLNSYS
Sequence of rat GPCR135 (rat) (Q5Y987 entry or part of it): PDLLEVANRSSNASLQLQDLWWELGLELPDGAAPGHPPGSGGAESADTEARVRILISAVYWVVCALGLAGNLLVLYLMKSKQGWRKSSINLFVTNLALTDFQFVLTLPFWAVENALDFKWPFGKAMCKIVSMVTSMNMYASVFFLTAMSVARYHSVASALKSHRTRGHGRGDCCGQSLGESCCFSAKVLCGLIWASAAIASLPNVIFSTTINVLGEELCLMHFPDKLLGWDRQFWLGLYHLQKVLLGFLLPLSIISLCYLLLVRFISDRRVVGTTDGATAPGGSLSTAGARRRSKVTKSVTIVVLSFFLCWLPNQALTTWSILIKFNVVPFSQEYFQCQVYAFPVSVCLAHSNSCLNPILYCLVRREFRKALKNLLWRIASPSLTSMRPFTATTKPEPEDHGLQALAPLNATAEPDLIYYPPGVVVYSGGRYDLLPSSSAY

Substance | stimulation of β-galactosidase activity in SK-N-MC/β-gal cells, EC50 [1] [nM] | induction of β-galactosidase activity in SK-N-MC/β-gal cells, EC50 [2] [nM] | IC50 [3] [nM] | IC50 [4] [nM]
porcine relaxin (from UniProt P01348 25-56; P01348 161-182) (ligand) | 0.25 | 1.5 | – | –
human relaxin (R1) (from UniProt P04808 26-53; P04808 162-185) (ligand) | – | – | > 1000 | 0.2
